Data published in the supplement of paper PMC12764529.
± gives the half width of the 95% confidence interval.

How the values were obtained:
[1] = folding stability dG unfold (combined trypsin and chymotrypsin); higher = more stable
Summary of the method: (§1)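 Mini-proteins designed to be under 80 residues and free of cysteine were carried in a PA-tagged cDNA display construct and digested with trypsin and with chymotrypsin. Each protease was applied at 11 threefold-diluted concentrations, alongside a no-protease condition, before sequencing. K50 came from Bayesian fitting of the sequencing counts, and unfolding free energy was obtained by comparing it with a sequence-predicted unfolded-state K50 and a shared folded-state K50, for each protease separately or for both together. Designs were retained only if their AlphaFold2 dimer inter-PAE exceeded 15.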

[2] = folding stability dG unfold from trypsin proteolysis; higher = more stable
Summary of the method: as §1

[3] = folding stability dG unfold from chymotrypsin proteolysis; higher = more stable
Summary of the method: as §1

Row | Sequence | folding stability dG unfold [1] | folding stability dG unfold [2] | folding stability dG unfold [3]
1 | SAGGSAGGPVIEIEMPKNGFFRVKIWNPGNGKKQEYWIPPDEPDALKSLLDPGIDRVEIEPYPPSAGGSAGG [r6_640_TrROS] | 0.671 ± 0.082 kcal/mol | -0.000886 ± 0.15 kcal/mol | 1.04 ± 0.1 kcal/mol
2 | SAGGSAGGPVRITSVRPIPGDPNVVVLELETVDGRPGTVLLVRLPGGERVAVLTLGDRPVVLPLSAGGSAGG [r6_555_TrMRF] | 1.41 ± 0.045 kcal/mol | 0.42 ± 0.013 kcal/mol | 1.93 ± 0.065 kcal/mol
3 | SAGGSAGGPVWKIRFPDDGKPYEFHINPNHGMIEVEDPKDGEPKGTVPMPINQLLEKGMEVEPVSAGGSAGG [r6_832_TrROS] | -0.551 ± 0.21 kcal/mol | -0.769 ± 0.28 kcal/mol | -0.45 ± 0.26 kcal/mol
4 | SAGGSAGGRFRIKFKNGPVIEIDPNEPTIRFPDGSRRFPLNGDDAEEALEEFLSNGMKITEIEPSAGGSAGG [r6_340_TrROS] | 0.641 ± 0.16 kcal/mol | -0.149 ± 0.2 kcal/mol | 0.99 ± 0.14 kcal/mol
5 | SAGGSAGGRIMIPVKNIKGQPAEEAKQWLKAILRELFPPGMKIDIDVQPDKDGEYWVTIDIKPPSAGGSAGG [r6_964_TrROS] | 2 ± 0.44 kcal/mol | 1.64 ± 0.23 kcal/mol | 2.48 ± 0.099 kcal/mol
6 | SAGGSAGGRRIYLPDFGAGGSGLVKAAEIAAAFEEEGYVASVSFSTSPFGPSVLVVDVASPSELSAGGSAGG [r6_597_TrMRF] | -0.171 ± 0.14 kcal/mol | -0.606 ± 0.17 kcal/mol | -0.0496 ± 0.13 kcal/mol
7 | SAGGSAGGRTLRIMVPMDSPEDAVEQAKEIVRELGLPPNFKIDDINVHRNPNGRYQVMVKIRVNSAGGSAGG [r6_284_TrROS] | 1.35 ± 0.064 kcal/mol | 1.05 ± 0.052 kcal/mol | 1.5 ± 0.07 kcal/mol
8 | SAGGSAGGSAAITIEVKPGETVTITLEIEVELPPGARAADGRTFKPGEKVRVTVTLTLRVEPSAGGSAGGSA [r18_450_TrROS_Hall] | 4.26 ± 0.22 kcal/mol | 3.72 ± 0.21 kcal/mol | 4.21 ± 0.27 kcal/mol
9 | SAGGSAGGSAAMLNRKPTVYPLPDDTVRLEETVPSPGTKIYKTIKLPPGGLIEEGDVSYPPSAGGSAGGSAG [r3_165_JUSTAS] | -0.521 ± 0.19 kcal/mol | -1.08 ± 0.31 kcal/mol | -0.367 ± 0.23 kcal/mol
10 | SAGGSAGGSAAPEVTIKVTITYDPETNVLTIEAEATLPDGRKVRITARINKDGSIEIVSVEEVSAGGSAGGS [r12_1029_TrROS_Hall] | > 6 kcal/mol | 4.63 ± 0.64 kcal/mol | 4.61 ± 0.91 kcal/mol
11 | SAGGSAGGSADDGDPNKQEPKPEVKVRPIEIRMSFAYYPPNGEPWMFSIEIRIWVYDGGLVSAGGSAGGSAG [r3_380_TrROS] | 5.34 ± 0.16 kcal/mol | 3.85 ± 0.1 kcal/mol | 5.61 ± 0.095 kcal/mol
12 | SAGGSAGGSADEEKLKELAEKLREAGYEVEVERYPDKVVIRVRNKKTGKTLELVFDSVEEALSAGGSAGGSA [r18_278_TrROS_Hall] | 3.92 ± 0.15 kcal/mol | 4.24 ± 0.12 kcal/mol | 2.95 ± 0.096 kcal/mol
13 | SAGGSAGGSADGPPTFRVRIKWKNGKKMKFEIDPNDSLEQVADPLSKLPGIDDIKDLEIYPSAGGSAGGSAG [r3_308_TrROS] | 0.764 ± 0.18 kcal/mol | 0.725 ± 0.13 kcal/mol | 1.05 ± 0.44 kcal/mol
14 | SAGGSAGGSADNWFIQIKWRHPENGKKRTLHIPFKTPWDVEEIVEELAPPGMDEVEVKIYPFSAGGSAGGSA [r18_258_TrROS] | 1.03 ± 0.061 kcal/mol | 0.707 ± 0.051 kcal/mol | 1.25 ± 0.091 kcal/mol
15 | SAGGSAGGSADPSVKPPVIKRLVIDIPLEELEKLFPGKLEKAVELAEEAVKLGFDEVVILGGSAGGSAGGSA [r18_441_TrMRF] | 0.793 ± 0.049 kcal/mol | 0.116 ± 0.031 kcal/mol | 1.12 ± 0.023 kcal/mol
16 | SAGGSAGGSADVVVEVEYDSSGDYVLVKVKLKEKEIPFKFSKSLSPEEVIEKAKELAKKAAKSAGGSAGGSA [r18_266_TrMRF] | 0.677 ± 0.13 kcal/mol | 0.597 ± 0.098 kcal/mol | 0.584 ± 0.27 kcal/mol
17 | SAGGSAGGSAEEKVFVKLYLNPNEPPTIDLEFFFEDGRVVRLRLDLATGTLNDIDPRPLDFSAGGSAGGSAG [r3_299_TrMRF] | 2.8 ± 0.12 kcal/mol | 2.74 ± 0.082 kcal/mol | 2.97 ± 0.046 kcal/mol
18 | SAGGSAGGSAEELAKELAKKLPPGAKFKIEVKTEYYKTKDGKTVKKKVEIKIYNEDGEEVTSAGGSAGGSAG [r3_247_TrROS_Hall] | 0.679 ± 0.32 kcal/mol | -0.0104 ± 0.19 kcal/mol | 1.1 ± 0.51 kcal/mol
19 | SAGGSAGGSAEIKIEYTLAPDGTLYVKVEIPNPETGETLVLEGPFDSLEEAIEVAKELEKESAGGSAGGSAG [r3_174_TrMRF] | 2.68 ± 0.18 kcal/mol | 2.29 ± 0.23 kcal/mol | 2.77 ± 0.056 kcal/mol
20 | SAGGSAGGSAEITFNFPNPNGRPYPISIEIEKPKRNPDGKYRYDYKIKVSPGMPKEAAKDLFSAGGSAGGSA [r18_272_TrROS] | -0.351 ± 0.2 kcal/mol | -0.849 ± 0.39 kcal/mol | -0.314 ± 0.33 kcal/mol
21 | SAGGSAGGSAEITVEWPNGRPVTVEPDPDSGMYEARFPDGWVVRAPFTNGKIPIDWIPPKDVSAGGSAGGSA [r18_405_TrROS] | 0.00326 ± 0.08 kcal/mol | -0.578 ± 0.28 kcal/mol | 0.282 ± 0.07 kcal/mol

Row | Sequence | folding stability dG unfold [1] | folding stability dG unfold [2] | folding stability dG unfold [3]
22 | SAGGSAGGSAEIVPVDGKLYVRIEVDGKTYVFEFDSVEELKNATFTLPNGKKVKVEIVPKEDLSAGGSAGGS [r12_730_TrROS_Hall] | 3.12 ± 0.059 kcal/mol | 2.26 ± 0.067 kcal/mol | 3.433 ± 0.029 kcal/mol
23 | SAGGSAGGSAEKKKVTIRIVVKPEDVEEILKAIEELLPPGAKATIKVFDKNGELIAEFEFEVSAGGSAGGSA [r18_188_TrROS_Hall] | 2.86 ± 0.12 kcal/mol | 2.5 ± 0.17 kcal/mol | 3.09 ± 0.25 kcal/mol
24 | SAGGSAGGSAEKKTITVVVKVDENGKEKTPEELAKELEKAGFKVTKVTWDEENNYVTVTIEASAGGSAGGSA [r18_466_TrROS_Hall] | 1.4 ± 0.18 kcal/mol | 1.72 ± 0.088 kcal/mol | 1.11 ± 0.049 kcal/mol
25 | SAGGSAGGSAEKLLIVVEVDTPEQAEALAKALAALLPPGAKITVKPVEVDGKLYLVAEVELSAGGSAGGSAG [r3_92_TrROS_Hall] | 3.75 ± 0.2 kcal/mol | 3.6 ± 0.16 kcal/mol | 3.84 ± 0.21 kcal/mol
26 | SAGGSAGGSAEKRIVAKVTEVRENEDGEKTVRVRITLPNGEELEVEVRRVERVGDYLVIELSAGGSAGGSAG [r3_261_TrROS_Hall] | 1.29 ± 0.089 kcal/mol | 1.26 ± 0.037 kcal/mol | 1.2 ± 0.048 kcal/mol
27 | SAGGSAGGSAEPEKKYNVKVTFYNPNTGELVLEAEFPNMTIDEVKELAKKLGLEIVKIEVGSAGGSAGGSAG [r3_423_TrMRF] | 4.48 ± 0.13 kcal/mol | 4.37 ± 0.27 kcal/mol | 4.43 ± 0.061 kcal/mol
28 | SAGGSAGGSAERTLTITVPAAPGDIPALVAPDGSVYGIGDFEVIPGEGRVELKVTLVKPGDASAGGSAGGSA [r18_116_TrMRF] | -0.0227 ± 0.051 kcal/mol | -0.879 ± 0.1 kcal/mol | 0.212 ± 0.032 kcal/mol
29 | SAGGSAGGSAETVTITLKVKPGEKVKIVNKKTKKVFEATVKDGYLTITLPKEDITEIKIEKVSAGGSAGGSA [r18_170_TrROS_Hall] | 2.29 ± 0.09 kcal/mol | 1.77 ± 0.05 kcal/mol | 2.47 ± 0.019 kcal/mol
30 | SAGGSAGGSAFDPGAPWIIMINIDIEVKKVEIERDPGDGKWEIKRIEITITIDIAIMPAEDMSAGGSAGGSA [r18_137_TrROS] | 3.88 ± 0.38 kcal/mol | 3.42 ± 0.39 kcal/mol | 4.11 ± 0.23 kcal/mol
31 | SAGGSAGGSAGAEELAKALAEELNVEVEVEVVEVEEPEVEVTEERRLPPAPEEVTIEEDESAGGSAGGSAGG [r11_753_TrROS_Hall] | 0.939 ± 0.12 kcal/mol | -0.129 ± 0.074 kcal/mol | 1.32 ± 0.092 kcal/mol
32 | SAGGSAGGSAGAEITVEYNPETNVLTVTVKVEFTLPDGTKVERTYRATINADGTITIEPESAGGSAGGSAGG [r11_911_TrROS_Hall] | 4.97 ± 0.13 kcal/mol | 3.99 ± 0.27 kcal/mol | 5 ± 0.095 kcal/mol
33 | SAGGSAGGSAGAGSWKDALKASSNETVTIPLPPTGKTLKITFSKSDDGSWKVDIEVFPAESAGGSAGGSAGG [r11_13_TrMRF] | 2.12 ± 0.15 kcal/mol | 2.03 ± 0.13 kcal/mol | 2.18 ± 0.079 kcal/mol
34 | SAGGSAGGSAGAPTGFIRVRVEFVTPDGQPAEADFTVPASLVDAVFRAARETGARVSLEGSAGGSAGGSAGG [r11_603_TrMRF] | 1.2 ± 0.068 kcal/mol | 0.504 ± 0.1 kcal/mol | 1.65 ± 0.074 kcal/mol
35 | SAGGSAGGSAGAVFTLPDGMKITIEKNEDGTYTITIETDGKTETIEIKPGETIEIEIFPPSAGGSAGGSAGG [r11_164_TrROS_Hall] | 2.91 ± 0.077 kcal/mol | 2.43 ± 0.093 kcal/mol | 3.202 ± 0.03 kcal/mol
36 | SAGGSAGGSAGAVLPIKNGWVAVIHMGPDGRVTINIYPPDKPREIEIPVNEPMEIEIFPWSAGGSAGGSAGG [r11_164_TrROS] | 1.78 ± 0.091 kcal/mol | 2.08 ± 0.053 kcal/mol | 1.3 ± 0.058 kcal/mol
37 | SAGGSAGGSAGDAPPGATLTLNIELELTLKVVDPSTGELVEERKLRIPLTLTYVLDDDDLSAGGSAGGSAGG [r11_970_TrMRF] | 3.8 ± 0.43 kcal/mol | 3.15 ± 0.42 kcal/mol | 4.24 ± 0.13 kcal/mol
38 | SAGGSAGGSAGDFDIKTVKNPPGTLMIVMPDNGWIQQIKFDPKNGKFKIDEIKWIPLDDISAGGSAGGSAGG [r11_352_TrROS] | 0.585 ± 0.11 kcal/mol | 0.499 ± 0.028 kcal/mol | 0.602 ± 0.066 kcal/mol
39 | SAGGSAGGSAGDFKIKDVEVERPPGRHRVEIRLPGNKKPIKIDNVPTPDDAEDAVKELLKSAGGSAGGSAGG [r11_183_TrROS] | 0.683 ± 0.1 kcal/mol | 0.0405 ± 0.073 kcal/mol | 0.975 ± 0.056 kcal/mol
40 | SAGGSAGGSAGDGWRKASFIIDPNGEILEPIPLPPGVKVEVEPFPGDGMYFVEITIPPDDSAGGSAGGSAGG [r11_32_TrROS] | 0.378 ± 0.17 kcal/mol | -0.497 ± 0.22 kcal/mol | 0.684 ± 0.099 kcal/mol
41 | SAGGSAGGSAGDKGYVMVTFPIEMTQYVYDPDGKPIGQHKHEMPITVMIPPNAAKKLLQASAGGSAGGSAGG [r11_620_TrROS] | 0.592 ± 0.07 kcal/mol | 0.186 ± 0.067 kcal/mol | 0.773 ± 0.062 kcal/mol
42 | SAGGSAGGSAGDKRITIWFPVPPGQPPPTLEEIADELPGFEDVDIDVEMYPNGYYRITIESAGGSAGGSAGG [r17_205_TrROS] | 0.966 ± 0.078 kcal/mol | 0.812 ± 0.047 kcal/mol | 1.05 ± 0.14 kcal/mol
